These results are taken from publication PMC3521585 (Journal of medicinal chemistry, 2009).

For one assay, the target named is rat NK1 receptor (rat, UniProt P14600 1-407). Briefly: radioligand binding.
In assay [1] the target is T1, human δ-opioid receptor (human, UniProt P41143 1-372). In words: radioligand binding.
Assay [2] has as its target T2, rat μ-opioid receptor (rat, UniProt P33535 1-398). In words: radioligand binding.
The target of assay [3] is T2, rat μ-opioid receptor. In words: cell-based or functional assay.
Assay [4] addresses T1, human δ-opioid receptor. In words: cell-based or functional assay.
Another assay deals with human NK1 receptor (human, UniProt P25103 1-407). In words: radioligand binding.
Sequence of human NK1 receptor (P25103 whole entry): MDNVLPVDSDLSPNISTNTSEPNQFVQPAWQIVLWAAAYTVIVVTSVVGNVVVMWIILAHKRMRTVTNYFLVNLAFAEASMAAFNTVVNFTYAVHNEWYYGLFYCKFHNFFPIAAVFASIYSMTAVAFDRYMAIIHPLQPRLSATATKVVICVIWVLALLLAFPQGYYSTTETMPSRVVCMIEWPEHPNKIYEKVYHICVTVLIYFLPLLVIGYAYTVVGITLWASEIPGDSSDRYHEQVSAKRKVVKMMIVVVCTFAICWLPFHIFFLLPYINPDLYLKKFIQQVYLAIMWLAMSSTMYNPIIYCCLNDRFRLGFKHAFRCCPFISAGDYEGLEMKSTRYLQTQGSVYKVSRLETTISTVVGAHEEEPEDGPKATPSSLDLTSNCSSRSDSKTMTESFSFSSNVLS

Non-standard residues stand in square brackets, D forms with d. No end group written: not given here. *: point of attachment. NH(3,5-(CF3)2-benzyl) = FC(F)(F)c1cc(CN*)cc(C(F)(F)F)c1; βGlc = OC[C@H]1O[C@@H](*)[C@H](O)[C@@H](O)[C@@H]1O; Nle = CCCC[C@H](N)C(=O)O

Sequence of rat NK1 receptor (P14600 whole entry): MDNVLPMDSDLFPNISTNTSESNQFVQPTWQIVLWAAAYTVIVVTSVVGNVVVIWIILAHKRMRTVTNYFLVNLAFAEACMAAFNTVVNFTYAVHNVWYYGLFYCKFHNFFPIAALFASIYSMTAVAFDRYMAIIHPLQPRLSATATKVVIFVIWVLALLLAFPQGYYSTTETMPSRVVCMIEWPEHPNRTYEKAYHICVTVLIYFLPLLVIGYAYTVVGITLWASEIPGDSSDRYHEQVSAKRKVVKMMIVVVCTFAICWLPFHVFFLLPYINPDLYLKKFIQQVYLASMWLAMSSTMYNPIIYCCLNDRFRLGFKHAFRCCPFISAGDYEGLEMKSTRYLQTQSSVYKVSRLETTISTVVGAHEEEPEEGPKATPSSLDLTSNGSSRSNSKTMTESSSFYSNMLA
T1 sequence (P41143 whole entry, stated change not applied): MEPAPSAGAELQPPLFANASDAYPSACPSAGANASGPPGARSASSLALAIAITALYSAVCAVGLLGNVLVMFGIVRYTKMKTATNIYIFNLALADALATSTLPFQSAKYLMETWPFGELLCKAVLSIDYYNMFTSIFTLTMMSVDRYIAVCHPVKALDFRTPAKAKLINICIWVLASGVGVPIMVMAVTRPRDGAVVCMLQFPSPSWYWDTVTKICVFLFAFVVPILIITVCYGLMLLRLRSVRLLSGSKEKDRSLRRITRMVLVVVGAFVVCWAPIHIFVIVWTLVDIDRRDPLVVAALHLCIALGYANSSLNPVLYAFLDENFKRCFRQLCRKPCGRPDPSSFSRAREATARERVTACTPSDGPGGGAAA
T2 sequence (P33535 whole entry): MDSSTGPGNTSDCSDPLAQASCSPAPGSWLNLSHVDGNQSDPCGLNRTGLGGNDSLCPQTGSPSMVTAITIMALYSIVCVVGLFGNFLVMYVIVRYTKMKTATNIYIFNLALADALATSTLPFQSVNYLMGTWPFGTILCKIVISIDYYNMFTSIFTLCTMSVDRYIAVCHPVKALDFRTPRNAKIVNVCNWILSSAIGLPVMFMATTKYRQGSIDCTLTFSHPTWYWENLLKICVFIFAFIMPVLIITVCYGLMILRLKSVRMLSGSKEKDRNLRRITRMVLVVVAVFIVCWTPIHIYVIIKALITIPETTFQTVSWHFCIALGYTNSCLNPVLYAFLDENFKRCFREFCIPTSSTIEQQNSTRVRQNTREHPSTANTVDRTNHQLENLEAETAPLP

A word on the Ki: it is the equilibrium dissociation constant of an inhibitor or competing ligand from its target. Higher therefore signals a looser hold on the target. For the molecule Y[dA]GF[Nle]PS(βGlc)W-{NH(3,5-(CF3)2-benzyl)} [Tyr-D-Ala-Gly-Phe-Nle-Pro-Ser(Glc)-Trp-NH-3’,5’-Bzl(CF3)2], in the assay with rat NK1 receptor, the Ki amounted to 14 nM and the LogIC50 is -7.3. Also, the LogIC50 with human δ-opioid receptor [1] was -8.1. Further, in the assay with rat μ-opioid receptor [2], the Ki stood at 8 nM and the LogIC50 is -7.77. For the same molecule, in the assay with rat μ-opioid receptor [3], the “[35S]GTPγS binding, HN9.10 membranes expressing rMOR: EC50” value stood at 18 nM; the “[35S]GTPγS binding, HN9.10 membranes expressing rMOR: Emax” value turned out to be 38%; the “[35S]GTPγS binding, HN9.10 membranes expressing rMOR: LogEC50” value was -7.75. Also, in the assay with human δ-opioid receptor [4], the “[35S]GTPγS binding, HN9.10 membranes expressing hDOR: EC50” value turned out to be 7.9 nM; the “[35S]GTPγS binding, HN9.10 membranes expressing hDOR: Emax” value stood at 64%; the “[35S]GTPγS binding, HN9.10 membranes expressing hDOR: LogEC50” value was -8.1.

On to Y[dA]GF[Nle]PLS(βGlc)W-{NH(3,5-(CF3)2-benzyl)} [Tyr-D-Ala-Gly-Phe-Nle-Pro-Leu-Ser(Glc)-Trp-NH-3’,5’-Bzl(CF3)2], for which the LogIC50 with rat NK1 receptor is -7.02. Moreover, the LogIC50 with rat μ-opioid receptor [2] was -7.22. Moreover, in the assay with rat μ-opioid receptor [3], the “[35S]GTPγS binding, HN9.10 membranes expressing rMOR: Emax” value came out at 50% and the “[35S]GTPγS binding, HN9.10 membranes expressing rMOR: LogEC50” value is -8.21. For the same molecule, in the assay with human δ-opioid receptor [4], the “[35S]GTPγS binding, HN9.10 membranes expressing hDOR: Emax” value was determined as 49% and the “[35S]GTPγS binding, HN9.10 membranes expressing hDOR: LogEC50” value was -7.56. Moreover, in the assay with human NK1 receptor, the LogIC50 was -9.93.

B1: Tyr-D-Ala-Gly-Phe-Nle-Pro-Leu-Trp-NH-3’,5’-Bzl(CF3)2 (peptide)
chain: YAGFXPLW
modifications: D-Ala at 2; norleucine (Nle) at 5 (written X); C-terminal 3’,5’-bis(trifluoromethyl)benzyl amide (Trp-NH-3’,5’-Bzl(CF3)2)
As to B1, in the assay with human δ-opioid receptor [1], the Ki is 1 nM and the LogIC50 is -8.67. In the assay with human δ-opioid receptor [4], the “[35S]GTPγS binding, HN9.10 membranes expressing hDOR: EC50” value was found to be 5 nM; the “[35S]GTPγS binding, HN9.10 membranes expressing hDOR: Emax” value was found to be 120%; the “[35S]GTPγS binding, HN9.10 membranes expressing hDOR: LogEC50” value is -8.3. Further, in the assay with human NK1 receptor, the inhibition constant (Ki) came to 0.0028 nM and the LogIC50 is -11.6.

As to Y[dA]GFS(βGlc)PLW-{NH(3,5-(CF3)2-benzyl)} [Tyr-D-Ala-Gly-Phe-Ser(Glc)-Pro-Leu-Trp-NH-3’,5’-Bzl(CF3)2], in the assay with rat NK1 receptor, the inhibition constant (Ki) was determined as 1.5 nM and the LogIC50 was -8.35. In the assay with human δ-opioid receptor [1], the inhibitory constant (Ki) turned out to be 59 nM and the LogIC50 is -6.91. In the assay with rat μ-opioid receptor [2], the Ki came to 260 nM and the LogIC50 was -6.12. In the assay with rat μ-opioid receptor [3], the “[35S]GTPγS binding, HN9.10 membranes expressing rMOR: EC50” value worked out at 180 nM and the “[35S]GTPγS binding, HN9.10 membranes expressing rMOR: LogEC50” value is -6.76. For the same molecule, in the assay with human δ-opioid receptor [4], the “[35S]GTPγS binding, HN9.10 membranes expressing hDOR: EC50” value was determined as 52 nM and the “[35S]GTPγS binding, HN9.10 membranes expressing hDOR: LogEC50” value is -7.29. In addition, in the assay with human NK1 receptor, the Ki was 0.0011 nM and the LogIC50 was -12.2.

In the case of Y[dA]GF[Nle]S(βGlc)LW-{NH(3,5-(CF3)2-benzyl)} [Tyr-D-Ala-Gly-Phe-Nle-Ser(Glc)-Leu-Trp-NH-3’,5’-Bzl(CF3)2], in the assay with rat μ-opioid receptor [2], the Ki is 3400 nM and the LogIC50 is -5.15. Also, in the assay with rat μ-opioid receptor [3], the “[35S]GTPγS binding, HN9.10 membranes expressing rMOR: EC50” value is 380 nM; the “[35S]GTPγS binding, HN9.10 membranes expressing rMOR: Emax” value turned out to be 81%; the “[35S]GTPγS binding, HN9.10 membranes expressing rMOR: LogEC50” value was -6.42. Further, the “[35S]GTPγS binding, HN9.10 membranes expressing hDOR: Emax” value with human δ-opioid receptor [4] was 130%. Also, in the assay with human NK1 receptor, the inhibitory constant (Ki) is 1.8 nM and the LogIC50 was -8.38.
